These results are taken from patent publication US20190030060A1.

Test [1] deals with Semaphorin 4D secreted by HNSCC cell lines into conditioned medium (cleaved form, ~120 KDa) (human) (UniProt Q92854). The test is described as follows: cell-based or functional assay.
Test [2] concerns the target recombinant human Sema4D (sCD100) (Cat #310-29) (Peprotech, Rocky Hill, N.J.) (human) (UniProt Q92854). Briefly: indirect ELISA, antigen coated on plate, standard curve with recombinant Sema4D, goat anti-mouse IgM-HRP. For orientation: ELISA stands for enzyme-linked immunosorbent assay.

For the substance “anti-Sema4D antibody (clone 30/CD100) (Cat #610670) (BD Biosciences PharMingen, San Diego, Calif.)”, in test [1], the reduction in the MDSC population (CD33+ CD11b+ HLA-DR-/low) of myeloid cells cultured in HNSCC conditioned medium, flow cytometry, against isotype control mAb worked out at 50%. Take “anti-human CD100 antibody (clone: 133-1C6; Novus Biologicals)”: the detection limit in test [2] was 3.1 ng/mL.
